From patent US20220281936A1

Target: IL12 receptor on pre-activated mouse CD8+ T cells (mouse) (UniProt Q60837)
Experiment: cell-based or functional assay

Chain of IL12 receptor on pre-activated mouse CD8+ T cells (mouse) (Q60837 20-738, chain 1 of 2): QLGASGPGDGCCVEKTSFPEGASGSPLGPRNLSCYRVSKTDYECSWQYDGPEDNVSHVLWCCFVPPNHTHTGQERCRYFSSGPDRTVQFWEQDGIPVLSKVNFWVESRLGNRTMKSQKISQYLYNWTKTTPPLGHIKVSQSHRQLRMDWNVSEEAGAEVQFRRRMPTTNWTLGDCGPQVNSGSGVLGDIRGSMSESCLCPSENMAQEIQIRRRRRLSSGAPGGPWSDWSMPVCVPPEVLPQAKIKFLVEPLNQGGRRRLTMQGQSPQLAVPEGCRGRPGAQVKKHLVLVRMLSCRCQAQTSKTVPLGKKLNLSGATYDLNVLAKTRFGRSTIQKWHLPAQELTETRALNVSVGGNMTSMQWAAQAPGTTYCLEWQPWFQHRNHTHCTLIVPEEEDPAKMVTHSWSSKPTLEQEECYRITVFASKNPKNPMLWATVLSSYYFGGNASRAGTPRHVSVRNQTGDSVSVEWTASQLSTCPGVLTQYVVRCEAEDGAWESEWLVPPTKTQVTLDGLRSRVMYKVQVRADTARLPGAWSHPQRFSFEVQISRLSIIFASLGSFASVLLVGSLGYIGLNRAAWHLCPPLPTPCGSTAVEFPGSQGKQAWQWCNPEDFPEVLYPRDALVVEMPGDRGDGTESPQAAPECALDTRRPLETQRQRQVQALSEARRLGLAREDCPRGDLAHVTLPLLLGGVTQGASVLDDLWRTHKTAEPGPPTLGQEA
Chain of IL12 receptor on pre-activated mouse CD8+ T cells (mouse) (chain, as listed by the source, chain 2 of 2): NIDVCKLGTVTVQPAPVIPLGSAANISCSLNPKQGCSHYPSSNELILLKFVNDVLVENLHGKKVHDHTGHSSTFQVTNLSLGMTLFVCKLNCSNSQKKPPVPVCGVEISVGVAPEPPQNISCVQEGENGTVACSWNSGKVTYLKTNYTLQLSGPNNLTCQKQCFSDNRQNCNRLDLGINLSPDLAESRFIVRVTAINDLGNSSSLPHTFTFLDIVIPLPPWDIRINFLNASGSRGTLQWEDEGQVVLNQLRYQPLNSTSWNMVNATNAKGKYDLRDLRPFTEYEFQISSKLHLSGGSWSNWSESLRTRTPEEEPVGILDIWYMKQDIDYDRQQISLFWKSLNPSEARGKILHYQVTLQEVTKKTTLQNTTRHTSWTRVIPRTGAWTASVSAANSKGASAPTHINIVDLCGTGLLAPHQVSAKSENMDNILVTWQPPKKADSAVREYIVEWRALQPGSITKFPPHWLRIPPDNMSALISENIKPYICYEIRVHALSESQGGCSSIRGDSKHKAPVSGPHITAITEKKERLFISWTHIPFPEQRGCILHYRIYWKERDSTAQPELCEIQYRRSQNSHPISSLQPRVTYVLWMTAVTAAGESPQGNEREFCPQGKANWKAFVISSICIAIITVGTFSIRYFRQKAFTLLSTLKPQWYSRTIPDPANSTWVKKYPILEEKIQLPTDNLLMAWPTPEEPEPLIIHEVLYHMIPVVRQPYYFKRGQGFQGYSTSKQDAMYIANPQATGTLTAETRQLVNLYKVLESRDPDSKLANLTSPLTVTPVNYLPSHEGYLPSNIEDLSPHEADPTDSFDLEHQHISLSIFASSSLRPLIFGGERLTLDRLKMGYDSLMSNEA

- EC50 of STAT4 phosphorylation in pre-activated mouse CD8+ T cells, fold against unmodified IL12: 80 fold
Substance: IL12Rβ1-(G3S)11-IL12
